Experimental findings from patent US20080280313 are described below.

The target in data set [1] is T1, CKI phosphopeptide substrate KRRRALS(p)VASLPGL (New England Biolabs).
T1 chain: KRRRALSVASLPGL

Data set [2] deals with T2, CKI substrate DDDEESITRR (Promega).
T2 chain: DDDEESITRR

Data set [3] has as its target T3, kemptide LRRASLG (Promega).
T3 chain: LRRASLG

Another data set concerns the target T4, β-casein (Sigma), P02666.
T4 chain: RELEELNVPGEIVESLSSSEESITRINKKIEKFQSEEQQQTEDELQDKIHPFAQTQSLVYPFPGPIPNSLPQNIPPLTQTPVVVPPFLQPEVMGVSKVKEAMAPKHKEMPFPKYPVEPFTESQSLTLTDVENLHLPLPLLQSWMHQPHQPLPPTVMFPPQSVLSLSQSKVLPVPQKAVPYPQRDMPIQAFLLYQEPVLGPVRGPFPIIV

Data set [4] has as its target T5, CKII substrate RRADDSDDDDD (Calbiochem).
T5 chain: RRADDSDDDDD

The target of data set [5] is T6, CKI substrate peptide RRKDLHDDEEDEAMSITA (Calbiochem).
T6 chain: RRKDLHDDEEDEAMSITA

The target of data set [6] is T7, partially dephosphorylated α-casein (Sigma), P02662.
T7 chain: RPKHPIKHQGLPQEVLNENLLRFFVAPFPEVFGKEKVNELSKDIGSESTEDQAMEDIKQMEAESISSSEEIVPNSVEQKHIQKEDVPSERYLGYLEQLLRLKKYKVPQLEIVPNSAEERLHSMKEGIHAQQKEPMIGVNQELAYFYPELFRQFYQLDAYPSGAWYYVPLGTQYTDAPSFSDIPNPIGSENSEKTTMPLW

Data set [7] addresses T8, CKII substrate RRREEETEEE (New England Biolabs).
T8 chain: RRREEETEEE

The target of data set [8] is T9, CaM kinase II substrate (281-291) MHKNETVECLK (Calbiochem).
T9 chain: MHKNETVECLK

The target in data set [9] is T10, Syntide-2 substrate PLARTLSVAGLPGKK (Calbiochem).
T10 chain: PLARTLSVAGLPGKK

B1: native EtCKIα, partially purified from Eimeria tenella unsporulated oocysts (protein)
chain: MDVRVGGKYRLGRKIGSGSFGDIYLGTNISTGDEVAIKLESVRSRHPQLIYESKLYKILTGGIGIPTLYWYGIEGDYNVMIIELLGPSLEDLFSICNRKLSLKTVLMLADQMLNRIEFVHSRHFIHRDIKPDNFLIGRGKKMSIVFAIDFGLAKKYRDPRTQSHIPYREGKNLTGTARYASVNTHLGIEQSRRDDLEALGYVLMYFNRGSLPWQGLKATTKKDKYDKIMEKKMSTPIEVLCKQFPFEFITYLNYCRSLRFEDRPDYSYLRRLFKDLFFREGYQYDFIFDWTFLHAERERERQRRSMVNQGAESGNQWRRDASGRDPLGRLPQLEP
Consider B1, for which the “Vmax relative to the α-casein substrate” value in data set [1] is given as “the phosphopeptide yielded a much higher Vmax (2.5× greater activity) than the α-casein substrate”.

B2: FLAGTgCKIβ, N-terminal FLAG epitope tagged Toxoplasma gondii casein kinase I beta (protein)
chain: AHHQDTRNHTGVGPSSSIPLKDLKIAGVWKIGRKIGSGSFGDIYKGLNSQTGQEVALKVESTKAKHPQLLYEYKLLKHLQGGTGIAQVFCCETAGDHNIMAMELLGPSLEDVFNLCNRTFSLKTILLLADQFLQRVEYIHSKNFIHRDIKPDNFLLGGAGNQNTIYVIDFGLAKKFRDPKTHQHIPYRENKNLTGTARYASISAHLGSEQSRRDDLEAVGYVLMYFCRGGTLPWQGIKANTKQEKYHKIMEKKMSTPVEVLCKGYPSEFATYLHYCRSLRFEDRPDYAYLKRLFRDLYIKEGYDDSDREFDWTVKLSSRSLGPPSSRAQHVLLSQDTRTRGKRETDRPVAARSGDRERGIHFSNGNVGNPSMATNPGGLSVMVHERTSLVDQGDRGSRETSTRKEDAKDGRWPGGRFSCLPLLCRRSPTKA
With B2, the Km(app) is 79 µM in [1]; 12 µM with β-casein (Sigma), P02666; 15 µM in [5]; 5 µM in data set [6]. The Vmax(app) (nmole min^-1 mg^-1) is 37 in data set [1]; 16 in the data set with β-casein (Sigma), P02666; 8 in [5]; 12 in [6]. In addition, the “kinase activity with peptide substrate” value in [2], in data set [3], in data set [4], in [7], in data set [8] and in data set [9] was “failed to show concentration dependent kinase activity” throughout.
